# From patent publication US20220332804A1 (CSL INNOVATION, published 2022)
# T1: human C2 L453A (human, UniProt P06681 21-752)
# T1 sequence: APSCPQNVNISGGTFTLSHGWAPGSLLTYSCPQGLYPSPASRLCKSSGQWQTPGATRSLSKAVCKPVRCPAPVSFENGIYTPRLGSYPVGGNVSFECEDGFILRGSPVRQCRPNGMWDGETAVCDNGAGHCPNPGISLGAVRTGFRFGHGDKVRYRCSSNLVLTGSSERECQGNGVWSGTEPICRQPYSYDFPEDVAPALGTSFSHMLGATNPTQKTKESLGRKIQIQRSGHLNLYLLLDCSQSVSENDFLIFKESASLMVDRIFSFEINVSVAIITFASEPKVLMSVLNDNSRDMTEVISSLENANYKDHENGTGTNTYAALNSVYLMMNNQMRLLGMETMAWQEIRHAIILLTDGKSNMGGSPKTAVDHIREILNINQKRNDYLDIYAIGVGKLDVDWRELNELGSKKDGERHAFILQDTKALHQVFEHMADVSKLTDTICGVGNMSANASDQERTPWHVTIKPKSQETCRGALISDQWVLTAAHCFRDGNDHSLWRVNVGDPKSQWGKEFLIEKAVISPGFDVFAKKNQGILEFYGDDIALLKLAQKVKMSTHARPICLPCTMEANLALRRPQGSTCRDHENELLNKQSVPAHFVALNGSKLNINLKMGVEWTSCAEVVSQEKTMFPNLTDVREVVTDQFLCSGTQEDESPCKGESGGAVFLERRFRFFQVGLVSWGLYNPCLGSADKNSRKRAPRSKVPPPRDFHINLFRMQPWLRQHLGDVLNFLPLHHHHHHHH
# T2: human C2 L701A (human, UniProt P06681 21-752)
# T2 sequence: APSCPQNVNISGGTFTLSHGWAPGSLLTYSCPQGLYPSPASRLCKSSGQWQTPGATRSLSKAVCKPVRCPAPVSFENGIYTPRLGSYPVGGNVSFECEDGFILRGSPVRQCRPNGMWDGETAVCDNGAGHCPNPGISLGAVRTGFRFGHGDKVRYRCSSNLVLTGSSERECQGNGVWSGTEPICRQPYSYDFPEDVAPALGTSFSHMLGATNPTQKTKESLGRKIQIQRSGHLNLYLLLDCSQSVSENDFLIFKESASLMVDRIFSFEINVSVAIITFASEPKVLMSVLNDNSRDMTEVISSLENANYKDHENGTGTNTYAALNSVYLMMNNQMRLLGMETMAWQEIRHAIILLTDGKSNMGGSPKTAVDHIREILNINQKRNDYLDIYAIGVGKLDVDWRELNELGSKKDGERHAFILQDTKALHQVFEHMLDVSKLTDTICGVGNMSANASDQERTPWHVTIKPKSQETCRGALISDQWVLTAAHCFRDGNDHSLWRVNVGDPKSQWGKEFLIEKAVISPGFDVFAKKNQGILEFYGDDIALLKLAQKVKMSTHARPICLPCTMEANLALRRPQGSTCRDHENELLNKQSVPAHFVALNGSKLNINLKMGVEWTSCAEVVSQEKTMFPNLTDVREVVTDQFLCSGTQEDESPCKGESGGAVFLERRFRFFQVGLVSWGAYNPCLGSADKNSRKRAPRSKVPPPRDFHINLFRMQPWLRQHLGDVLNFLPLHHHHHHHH
# T3: human C2 K531A (human, UniProt P06681 21-752)
# T3 sequence: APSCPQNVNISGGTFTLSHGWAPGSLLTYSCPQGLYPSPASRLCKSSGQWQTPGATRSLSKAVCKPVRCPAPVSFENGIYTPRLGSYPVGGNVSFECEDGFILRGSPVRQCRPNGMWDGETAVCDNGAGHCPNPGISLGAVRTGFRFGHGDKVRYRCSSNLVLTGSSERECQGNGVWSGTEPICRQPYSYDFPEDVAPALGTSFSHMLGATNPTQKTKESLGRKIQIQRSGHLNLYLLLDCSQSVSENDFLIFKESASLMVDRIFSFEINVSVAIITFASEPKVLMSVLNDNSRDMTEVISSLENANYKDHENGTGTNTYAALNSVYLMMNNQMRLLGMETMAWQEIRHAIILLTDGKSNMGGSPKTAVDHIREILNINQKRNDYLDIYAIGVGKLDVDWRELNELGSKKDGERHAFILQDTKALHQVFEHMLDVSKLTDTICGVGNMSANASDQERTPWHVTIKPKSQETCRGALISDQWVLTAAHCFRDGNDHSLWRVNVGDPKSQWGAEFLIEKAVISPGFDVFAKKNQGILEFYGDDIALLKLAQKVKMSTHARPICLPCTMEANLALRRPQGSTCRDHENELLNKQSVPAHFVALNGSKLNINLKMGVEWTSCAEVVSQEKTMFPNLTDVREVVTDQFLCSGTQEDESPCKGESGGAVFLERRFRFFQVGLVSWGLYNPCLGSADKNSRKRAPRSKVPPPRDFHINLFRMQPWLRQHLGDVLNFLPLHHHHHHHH
# T4: human C2 Y328A (human, UniProt P06681 21-752)
# T4 sequence: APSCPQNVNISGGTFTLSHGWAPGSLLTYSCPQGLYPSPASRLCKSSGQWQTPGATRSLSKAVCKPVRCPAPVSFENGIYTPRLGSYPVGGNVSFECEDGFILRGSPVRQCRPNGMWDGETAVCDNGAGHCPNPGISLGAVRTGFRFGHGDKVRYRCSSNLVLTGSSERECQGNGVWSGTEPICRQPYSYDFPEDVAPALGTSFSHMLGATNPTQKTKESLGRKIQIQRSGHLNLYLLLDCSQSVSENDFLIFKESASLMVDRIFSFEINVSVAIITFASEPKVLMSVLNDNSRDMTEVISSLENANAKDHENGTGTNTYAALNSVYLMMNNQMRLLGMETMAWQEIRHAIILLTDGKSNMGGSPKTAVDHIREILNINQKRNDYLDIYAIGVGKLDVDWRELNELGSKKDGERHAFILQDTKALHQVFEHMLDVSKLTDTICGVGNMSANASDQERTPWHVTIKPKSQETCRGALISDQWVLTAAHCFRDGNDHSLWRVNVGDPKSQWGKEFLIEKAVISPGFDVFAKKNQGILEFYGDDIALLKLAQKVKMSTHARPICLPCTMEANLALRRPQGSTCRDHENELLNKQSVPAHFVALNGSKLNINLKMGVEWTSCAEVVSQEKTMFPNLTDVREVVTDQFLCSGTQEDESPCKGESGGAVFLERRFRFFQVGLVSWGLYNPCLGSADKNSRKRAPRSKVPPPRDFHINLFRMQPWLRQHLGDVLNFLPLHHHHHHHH
# B1: RF16-226 (antibody, human IgG4 S228P, lambda)
# heavy: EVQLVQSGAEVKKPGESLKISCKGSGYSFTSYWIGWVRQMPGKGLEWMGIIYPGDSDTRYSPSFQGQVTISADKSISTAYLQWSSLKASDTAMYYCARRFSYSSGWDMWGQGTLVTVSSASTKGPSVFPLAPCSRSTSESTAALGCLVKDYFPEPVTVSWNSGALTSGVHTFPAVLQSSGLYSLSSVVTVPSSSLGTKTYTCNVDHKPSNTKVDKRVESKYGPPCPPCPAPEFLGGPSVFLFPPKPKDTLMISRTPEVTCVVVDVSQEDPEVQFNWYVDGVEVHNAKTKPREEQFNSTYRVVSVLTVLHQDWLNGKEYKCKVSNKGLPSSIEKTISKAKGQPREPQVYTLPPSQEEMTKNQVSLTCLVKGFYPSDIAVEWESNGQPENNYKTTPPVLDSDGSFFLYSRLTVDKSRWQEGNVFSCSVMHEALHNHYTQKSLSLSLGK
# light: SYELTQPPSVSVSPGQTARITCSGDALTSKYVAWYQQKSGLAPLLVIYEDTRRPSGIPAKFSGSSSGSVATLTISGAHGDDEADYYCYSTDASGHQRVFGGGTKLTVLSQPKAAPSVTLFPPSSEELQANKATLVCLISDFYPGAVTVAWKADGSPVKAGVETTKPSKQSNNKYAASSYLSLTPEQWKSHRSYSCQVTHEGSTVEKTVAPTECS
# notes: pH-dependent anti-C2 antibody from a phage display library; also called WT
# Columns and labels:
# Assay in all cases: SPR, KD relative to WT C2;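 note: biacore SPR at 37 °C, anti-C2 mAbs captured via immobilised goat anti-human IgG, C2 alanine or serine surface mutants as analytes, 1:1 model fitted, double-referenced sensograms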
# human C2 L453A = target: T1, human C2 L453A
# human C2 L701A = target: T2, human C2 L701A
# human C2 K531A = target: T3, human C2 K531A
# human C2 Y328A = target: T4, human C2 Y328A
binder,measurement,setting,value
B1,Fold diff,human C2 L453A,3 fold
same,Fold diff,human C2 L701A,16 fold
same,Fold diff,human C2 K531A,1 fold
same,Fold diff,human C2 Y328A,8 fold
